The values that follow come from paper PMC2936243 (Journal of neurochemistry, 2010).

For this assay, the target named is native rat α7 nicotinic acetylcholine receptor (hippocampus) (rat (endogenous in hippocampus)) (UniProt Q05941). Nature of the assay: radioligand binding.

In turn, “Alexa Fluor 546-ArIB[V11L;V16A] (peptide)” showed an IC50 of 7.9 nM and a Ki of 1.8 nM.
